B1: C118 (antibody, V domains shown)
VH: QVQLVESGGGVVQPGRSLRLSCAASGFTFSNYAMHWVRQAPGKGLEWVAVISYDGSNKYYADSVKGRFTISRDNSKNTLYLQMNSLRAEDTAIYYCASGYTGYDYFVRGDYYGLDVWGQGTTVTVSS
VL: QPVLTQSPSASASLGASVKLTCTLSSGHSSYAIAWHQQQPEKGPRYLMKLNTDGSHSKGDGIPDRFSGSSSGAERYLTISSLQSEDEADYYCQTWGTGILVFGGGTKLTVL
B2: C105 (antibody, V domains shown)
VH: QVQLVESGGGLIQPGGSLRLSCAASGFTVSSNYMSWVRQAPGKGLEWVSVIYSGGSTYYADSVKGRFTISRDNSKNTLYLQMNSLRAEDTAVYYCARGEGWELPYDYWGQGTLVTVSS
VL: QSALTQPPSASGSPGQSVTISCTGTSSDVGGYKYVSWYQQHPGKAPKLMIYEVSKRPSGVPDRFSGSKSGNTASLTVSGLQAEDEADYYCSSYEGSNNFVVFGGGTKLTVL

Target: Receptor Binding-Domain (RBD) of SARS-CoV-2 Spike (S) protein, Wuhan-Hu-1 (SARS-CoV-2, UniProt P0DTC2)
Assay: BLI

| Binder | binding result |
| --- | --- |
| B1 | binds |
| B2 | binds |
